The source of these data is patent publication US20180194833A1 (H LUNDBECK A S, published 2018).

For assay [1], the target named is Mouse alpha-synuclein (mouse, UniProt O55042 1-140). Put plainly: Fortebio Octetred.
Assay [2] deals with Human alpha-synuclein (human, UniProt P37840 1-140). Description: SPR (BIAcore 3000), antibody captured by goat anti-human IgG, human alpha-synuclein 3.125-100 nM as analyte. A general note: In SPR one partner is held on a chip, and binding of the other changes the refractive index at the surface.
Description: Goat anti-human IgG was immobilized on the CM5 chip. […] The sensor surface was regenerated between each cycle.

B1: GM37 (antibody, human IgG1, kappa, V domains shown)
VH: EVQLLESGGGLVQTGGSLRLSCAASGFTFSSYAMTWVRQAPGKGLEWVSAIRSNGDRTDYADSVKGRFTISRDNSQNTLYLQMNSLRAEDTAVYYCAKNWAPFDSWGQGTLVTVSS
VL: not shown
notes: also called GM37 wild type (wt); GM37wt
In the case of B1, the binding result in assay [1] is given as “binds”.

B2: Comparator antibody 9E4 (antibody, human IgG1, kappa, V domains shown)
VH: EVQLVESGGGLVQPGGSLRLSCAASGFTFSNYGMSWVRQAPGKGLEWVASISSGGGSTYYPDNVKGRFTISRDNAKNSLYLQMNSLRAEDTAVYYCARGGAGIDYWGQGTLVTVSS
VL: DIQMTQSPSSLSASVGDRVTITCKSIQTLLYSSNQKNYLAWFQQKPGKAPKLLIYWASIRKSGVPSRFSGSGSGTDFTLTISSLQPEDLATYYCQQYYSYPLTFGGGTKLEIKR
notes: also called h9E4; human 9E4
Turning to B2, in assay [2], the binding result is “binds”.

B3: GM285 (antibody, human IgG1, kappa, V domains shown)
VH: EVQLLESGGGLVQPGGSLRLSCAASGFTFSRFTMTWVRQAPGKGLEWVSAISGSGGGTSYADSVKGRLTVSRDNSKNTLYLQMNSLRAEDTAVYYCAKNWAPFDYWGQGTLVTVSS
VL: not shown
notes: also called mab285
For the molecule B3, the binding result in assay [1] is “binds”.
